Experiment: label from the status in PepcDB records

For “MSNELLMSSAEYPAHQENKRFRGASSQNITVILPACNNEVSIGSLILLTRLYADNVIVVDDGSTDRTVEISRKAGAHVIVNEACKGKVGSLRTGFTAAADLGADIIVTMDPDGQHNPAEIPRIVAPIIDGTAEMVNGSRYLNYPGKNSSVYSRTGQTMQDISANMNFNLKITDTQSGFRAYAASTKSIFRFSGKKTAIENEMLADAGRSGIRIAEVEIGACTSVGASIRDPVKYTLGALRTMAEDIEANKPLYFYSVPGFALATCGFFMGFKFMADYFFGIASLNFGHTFLMVFLALAGAYMTLRGIIAHSMAGAARQTDST”, which protein production is on record?
Its protein production is “failed”.

With “MSNESETDVDEETADEEEQAEGLQKGDVVKLAYTARTVDGGQLVDTTDEEVAEDDGIDTEQQEFGPRTIVLGENHIFPDVEQDIYGKEVGDEGDVTVAAADAFGEYDEEEVRTVSKDKIPEDDRYPGAHVDLEGEHGHVETIIGGRARVDFNHPLAGEDVEYDYEVLEEVTDREEKAQGIIQMMLDMELDVWFETDTVEEEQLVESEDEDEDEESEPEYETVEVEKETLYIEATPQLTMNQQWMMGKQQIAQQLTQLLDIDRIIVQEEIGGGGMGMPGMMGGMGGAGGADIEDALEDADVDAEEIVEEIEGAEE” as the sequence, how does the protein production read?
Its protein production is “failed”.

Which protein production does the source give for “MSNFFKQTLASLLGTLLGLFLFAGAGTTGLLLLLFAAASSSNTGPVVKDKSVVVFDLSMNITDREPSAGEELQNRFSGVTQERMTLRNVIDSLEKAQRDKRIVAIYLDGSRGGNNLGFASLKEIRKALEEFRKSGKKVIAYGVAWDEKEYYLSSVADTIALNPLGGLEINGLSSQPMFLAGALQKYGIGVQVVRAGKFKGAVEPFLLDKLSPENREQTQKLLDDVWGEWRTTVGNSRKINPQKLQAIADNQSLLEATEAKTNGLVDQVAYNDQVVADLKKLTGSNKKDNTFTQISLRRYAQVPGQSLGLEKNSKNKIAVVYAEGDIVDGKGDDGQIGGDRFARIFNKIRQDENVKAVVLRINSPGGSATASEVMQREIRLTRESKPVVVSMGDYAASGGYWIATDSNRIFAEPNTITGSIGVFGVLFNGQKLANDNGITWDAVKTARYADSQTVARPKSPQEIAIYQRSVDRIYNMFVNKVAQGRKLPTQKVAEIAQGRVWSGVTAKQIGLVDEIGGLNAAIEYAAKAAKLGKDWQLREYPRESSFEERFFGGVVEEISTTLGIKKLDVKPNDPLTVQIQKIQQEISILQTMNDPQGVYARLPINLKIE” here?
The protein production was “failed”.

With “MSNIIVLSGSPRKGGNTDLLVDAFVKGAEKSNNVEVVSVAYYKVNPCIGCNSCFDRAGHECFQQDDMQIVYDKLKCADVIVVASPVYFYGVSAQLKAIIDRLHTPMRNDFKVKKLALILVGAAVLPELFDSIKIQYQLVLNFFKLEDAGMVLVRGAKDKGDVRNTDGLDEAYRLGLAME” as the sequence, how does the protein production read?
Its protein production is “failed”.

Which protein production does the source give for “MSNKRKLWQIFGPVLCAFILLIILFLIPWQNGEKSDNALFKASVSQSQTVFKGQSIKQAAFEKNYVPFYGSSELSRMDALHPSVLAYKYKRNYRPFLLGGPGSQSLTHFFTMQETVNQLSNKKAVFIISPQWFTKQGQNPAAFGMYFSQLQAVDWILTAKDSVATRYAARRLLDMPAGTASETTKYALMTLASGQKLSKYQTLYLKARRRMLANEDNFFSSIGMTNNIPKIQKEAGKLPGTYAYDNLRQFANEQGQQGTTNNKFGISNGFFDKKLNNKHLKHLKNSQRDFDYTQSPEYADFELVLNELAHEHVNVLFIIPPVNEKWAKYTGLSQTMYQECVAKITKQLTSQGFNNIANLSKDGGKKFFMEDTIHLGWNGWLKVDQYVKPFMEEKNHPVNYKLNSYYFTKAWGNKTNVKMPNVKSKAAVDIKKN” here?
The protein production was “failed”.

With “MSNRIKNIHYGTQRQQLKNLTKKEYQALREMCFLAKNLYNVGTYNVRQHYFNQGEHLNYEANYHVCKENENYKLLNSNIAQQILKEVDSSFRSFFGLIKLAKEGKYDFRGIKSPKYLDKEGFFSIIIGQIRIKEDGILNVPMSPAFKKLYGKVSIKVPQNILEKKIKEIRIIPKHKARFFEIQYCYEIPKSEEVSNQKNALAIDLGLENLCTCVTNLGDSFIIDGKRLKSVNQWANKQNDKIEALKLKKNITAITRKQFKVWNKRNNQVKDYVNKTCFYIIDYCVKNNIGNLIVGYNAKLEKSDNMERKIYRNFIRIPFGEIKGKLEYLCKIKNINFIRQEESYTSKSDFFADDFLPDINVDNVKKYDFKGERITRGQYKSSVGIIINADVNASLNILKKSQVVNLSNLQNNPQILKQPQRVRIS” as the sequence, how does the protein production read?
The protein production was “failed”.

For “MSNSSMSVVILAAGKGTRMYSDLPKVLHPLAGKPMVQHVIDAAMKLGAQHVHLVYGHGGELLKKTLADPSLNWVLQAEQLGTGHAMQQAAPHFADDEDILMLYGDVPLISVDTLQRLLAAKPEGGIGLLTVKLDNPSGYGRIVRENGDVVGIVEHKDASDAQREINEINTGILVANGRDLKRWLSLLDNNNAQGEFYITDIIALAHADGKKIATVHPTRLSEVEGVNNRLQLSALERVFQTEQAEKLLLAGVMLLDPSRFDLRGELTHGRDITIDTNVIIEGHVILGDRVRIGTGCVLKNCVIGDDSEISPYTVLEDARLDANCTVGPFARLRPGAELAEGAHVGNFVEIKKARLGKGSKAGHLSYLGDAEIGAGVNIGAGTITCNYDGANKFKTIIGDDVFVGSDTQLVAPVTVANGATIGAGTTVTRDVAENELVISRVKQVHIQGWKRPVKKK”, which protein production is on record?
The protein production was “not failed”.

With “MSNVLIINAMKEFAHSKGALNLTLTNVAADFLRESGHQVKITTVDQGYDIESEIENYLWADTIIYQMPAWWMGEPWILKKYIDEVFTDGHGRLYQSDGRTRSDATKGYGSGGLIQGKTYMLSVTWNAPREAFTDPEQFFHGVGVDGVYLPFHKANQFLGMKPLPTFMCNDVIKQPDIEGDIARYRQHLAENVNS” as the sequence, how does the protein production read?
Its protein production is “not failed”.

With “MSNVRVLATDLAFPEGPVVMPDGSVVLVEIRAQQLTRVWPDGRKEVVAKVPGGPNGAALGPDGKMYICNNGGFGWFPSRGTMMPGAPAPHEYIGGSIQRVDLQSGEVETLFDKCGEHPLKGPNDLVFDKHGGLWFTDLGKRRARDMDVGAAYYIKPGMTEITEQVFGTLPLNGIGLSPDEATMYAAETPTGRLWAFDLSGPGEVKPRDVIYRGEKGKPICGLGGYQMFDSLAVEASGNVCVATLVSGCISVIAPDGTLVEQVPTGDRVTTNIAFGGPDLKTAYITLSGKGELIAMDWSRPGLPLNFLNKLEHHHHHH” as the sequence, how does the protein production read?
Its protein production is “failed”.

For “MSNWPYPRIVAHRGGGKLAPENTLAAIDVGAKYGHKMIEFDAKLSKDGEIFLLHDDNLERTSNGWGVAGELNWQDLLRVDAGSWYSKAFKGEPLPLLSQVAERCREHGMMANIEIKPTTGTGPLTGKMVALAARQLWAGMTPPLLSSFEIDALEAAQQAAPELPRGLLLDEWRDDWRELTARLGCVSIHLNHKLLDKARVMQLKDAGLRILVYTVNKPQHAAELLRWGVDCICTDAIDVIGPNFTAQ”, which protein production is on record?
The protein production was “not failed”.

With “MSPAIITLLILVVAIIIFISDRLPMGLVAFMVPMALYFFGVIGVKDIFASIVNENVILIIAMCVLGAAFFKTGLAWQSSKILLKYAKTERSLSVLIFMISGVMSAFVSNSGTVAVLIPIVLGIAGTSQIKPIKLLMPLVFGATIGADISIIGSPGNLIAKNTIETFSKGNLSVPFFEYAKIGIPLMIACALLLFFFGSRLIPDRDGHEQSDVQMDYSHIPEWHKLLTLIVFVLAILGMVATDYVKFLPPIHIIACCAAIVLVLTGVLNQKETFNSFETLTVFMLAFMMPLGAALNSTGAGEMIARAVISVTGNSGVIVIMASLWILTWALTQVMSNTAACTLLCPVGWTIAQSIGADPRAVVIAIFIASSVAVCTPMAIPANSMIIGPGNVKFKDFLKPGLAISFVCFIVSMILLPVFYPFY” as the sequence, how does the protein production read?
The protein production was “failed”.

For “MSPFLRIGLSNFDCGSCQSCQGEAVNPYCAVLVKEYVESENGQMYIQKKPTMYPPWDSTFDAHINKGRVMQIIVKGKNVDLISETTVELYSLAERCRKNNGKTEIWLELKPQGRMLMNARYFLEMSDTKDMNEFETEGFFALHQRRGAIKQAKVHHVKCHEFTATFFPQPTFCSVCHEFVWGLNKQGYQCRQCNAAIHKKCIDKVIAKCTGSAINSRETMFHKERFKIDMP”, which protein production is on record?
The protein production was “failed”.

Which protein production does the source give for “MSPIARAALWMTGAIASFSAMAVAGRELSAVHDTFEIMMYRSFVGVLVVSLILSVTGTWHQVSTRALGLHALRNAVHFTGQNLWFFAVTVIPLAQVFALEFTQPLWVILLSPLLLGERMTRVRVAAAVIGFVGILIVARPGASSLNIGILTAALSAIFFAMTTISTKKLTRLASIGCIMFWLTVMQAVLGLVASGHDGQIALPTLGTAPYLVLVGLAGLLAHYCITNALAIAPATVVVPIDFARLPTIAVVGMLLYGEALDIWVLVGAAVIFAGNYLNILAETRNTAR” here?
The protein production was “failed”.

Reference: a protein production outcome set (Wang et al. 2014)
